The target in experiment [1] is T1, IGSF11 ECD fused to murine-Fc (human; mouse, UniProt Q5DX21 23-241).
T1 construct: also called Fc-fusion IGSF11 ECD; full-length ECD of IGSF11; not shown: murine Fc
T1 sequence: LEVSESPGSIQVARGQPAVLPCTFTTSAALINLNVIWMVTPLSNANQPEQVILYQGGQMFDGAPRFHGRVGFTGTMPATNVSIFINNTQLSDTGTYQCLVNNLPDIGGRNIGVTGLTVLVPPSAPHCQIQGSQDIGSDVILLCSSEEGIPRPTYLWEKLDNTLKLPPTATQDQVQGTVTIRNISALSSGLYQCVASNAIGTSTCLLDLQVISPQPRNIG
Briefly: ELISA, IgG.

Experiment [2] addresses T2, murine IGSF11 on cells (mouse, UniProt P0C673 23-428).
T2 construct: UniProt P0C673; also called MC38-IGSF11 (murine); CT26-IGSF11 (murine)
T2 sequence: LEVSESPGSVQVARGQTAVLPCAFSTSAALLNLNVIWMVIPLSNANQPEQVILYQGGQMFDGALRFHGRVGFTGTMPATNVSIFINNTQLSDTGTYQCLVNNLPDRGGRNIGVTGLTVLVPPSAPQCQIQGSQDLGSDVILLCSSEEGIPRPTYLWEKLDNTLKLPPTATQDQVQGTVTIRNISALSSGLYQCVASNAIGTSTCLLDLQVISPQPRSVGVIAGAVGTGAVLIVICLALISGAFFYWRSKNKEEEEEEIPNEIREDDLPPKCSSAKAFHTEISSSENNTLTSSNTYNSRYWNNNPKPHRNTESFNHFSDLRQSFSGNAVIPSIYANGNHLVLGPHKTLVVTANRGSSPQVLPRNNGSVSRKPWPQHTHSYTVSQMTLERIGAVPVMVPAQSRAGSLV
Kind of experiment: FACS, CT26-IGSF11 cells, IgG.
Source text: (§1) Unbound antibodies were removed by washing the cells three time with FACS buffer. Bound antibodies were detected with a mouse anti-human IgG antibody conjugated with AlexaFluor647.

Experiment [3] concerns the target T2, murine IGSF11 on cells. Kind of experiment: FACS, MC38-IGSF11 cells, IgG.
Source text: as §1
Experiment [4] concerns the target T3, human IGSF11 (VSIG3) on cells (human, UniProt Q5DX21 23-431).
T3 sequence: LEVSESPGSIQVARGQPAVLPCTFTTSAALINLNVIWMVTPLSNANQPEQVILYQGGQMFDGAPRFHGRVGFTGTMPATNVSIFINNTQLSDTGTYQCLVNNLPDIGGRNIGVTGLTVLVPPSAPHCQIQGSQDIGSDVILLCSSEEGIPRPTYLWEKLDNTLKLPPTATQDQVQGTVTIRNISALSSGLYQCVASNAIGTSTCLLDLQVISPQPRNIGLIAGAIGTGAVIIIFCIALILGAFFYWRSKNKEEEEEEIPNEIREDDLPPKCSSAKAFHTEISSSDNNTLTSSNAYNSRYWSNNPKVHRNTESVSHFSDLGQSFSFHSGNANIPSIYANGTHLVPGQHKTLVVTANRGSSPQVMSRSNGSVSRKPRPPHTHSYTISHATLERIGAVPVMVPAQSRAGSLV
Briefly: FACS, MDA-MB-231-IGSF11 cells, IgG. A general note: Flow cytometry measures light scatter and fluorescence of single cells or particles in a stream.
Source text: as §1

For experiment [5], the target named is T4, recombinant human IGSF11 (VSIG3) extracellular domain (ECD) (human, UniProt Q5DX21 23-241, biotinylated where captured on streptavidin).
T4 construct: also called biotinylated recombinant ECD-IGSF11; IGSF11 (ECD domain)
T4 sequence: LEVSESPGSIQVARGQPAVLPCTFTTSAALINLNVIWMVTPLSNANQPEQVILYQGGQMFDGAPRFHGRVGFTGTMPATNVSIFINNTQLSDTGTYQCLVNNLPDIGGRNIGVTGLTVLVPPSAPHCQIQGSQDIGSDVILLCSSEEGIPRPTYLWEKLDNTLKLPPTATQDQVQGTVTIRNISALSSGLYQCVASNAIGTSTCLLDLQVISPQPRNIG
Briefly: ELISA, Fab. (In general: An ELISA detects its analyte on a solid surface through an enzyme-linked reagent.)
Procedure: (§2) In order to identify IGSF11-specific binding ABPs, monoclonal Fabs expressed from E. coli were generated from the enriched set of anti-IGFS11 antibody-expressing phage. After bacterial lysis, the Fabs were tested for their binding properties and cross-reactivity profile on recombinant ECD-IGSF11 (human, mouse and cynomolgus monkey) by standard ELISA. Briefly, biotinylated recombinant ECD-IGSF11 from human, mouse, or cynomolgus monkey were immobilized at 2 ug/mL on a streptavidin-coated 384-well Maxisorp plate. The surface was blocked with 2% (w/v) skim milk powder in PBST. After three wash cycles with PBST, a bacterial lysate of each of the anti-IGSF11 Fabs in 2% (w/v) skim milk powder was applied to the immobilized IGSF11 and incubated for 1 h. After removing all unbound Fab by 3 wash cycles with PBST, bound Fab antibodies were detected with a goat anti-human Fab antibody conjugated with horseradish peroxidase. After three wash cycles with PBST the ELISA was developed with TMB substrate.

For experiment [6], the target named is T5, recombinant murine IGSF11 extracellular domain (ECD) (mouse, UniProt P0C673 23-240, biotinylated).
T5 construct: also called Mouse IGSF11; murine ECD-IGSF11
T5 sequence: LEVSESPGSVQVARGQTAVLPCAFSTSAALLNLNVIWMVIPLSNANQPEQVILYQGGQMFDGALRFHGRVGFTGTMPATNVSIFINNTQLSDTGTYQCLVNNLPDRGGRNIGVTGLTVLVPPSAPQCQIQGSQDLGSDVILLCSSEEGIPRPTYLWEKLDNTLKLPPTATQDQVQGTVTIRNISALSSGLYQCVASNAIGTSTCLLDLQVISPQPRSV
Briefly: ELISA, Fab.
Procedure: as §2

Experiment [7] deals with T6, recombinant cynomolgus monkey IGSF11 extracellular domain (ECD) (cynomolgus monkey, UniProt Q5DX21 23-241 (human entry), biotinylated).
T6 chain: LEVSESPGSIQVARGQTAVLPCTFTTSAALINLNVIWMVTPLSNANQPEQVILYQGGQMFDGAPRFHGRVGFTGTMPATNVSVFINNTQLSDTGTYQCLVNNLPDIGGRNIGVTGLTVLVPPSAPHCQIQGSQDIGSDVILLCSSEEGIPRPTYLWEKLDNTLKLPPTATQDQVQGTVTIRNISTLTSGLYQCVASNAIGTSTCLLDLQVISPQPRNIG
Kind of experiment: ELISA, Fab.
Procedure: as §2

Another experiment addresses T7, Streptavidin (UniProt P22629 37-163, limits assumed).
T7 construct: also called negative antigen; irrelevant antigen
Briefly: ELISA, Fab.

Experiment [8] addresses T8, His-tagged extracellular domain (ECD) of human IGSF11 (VSIG3) (human, UniProt Q5DX21 23-241).
T8 construct: partly bought (SinoBiological 13094-H08H); also called IGSF11-HIS; HIS-IGSF11; not shown: HIS6 tag
T8 sequence: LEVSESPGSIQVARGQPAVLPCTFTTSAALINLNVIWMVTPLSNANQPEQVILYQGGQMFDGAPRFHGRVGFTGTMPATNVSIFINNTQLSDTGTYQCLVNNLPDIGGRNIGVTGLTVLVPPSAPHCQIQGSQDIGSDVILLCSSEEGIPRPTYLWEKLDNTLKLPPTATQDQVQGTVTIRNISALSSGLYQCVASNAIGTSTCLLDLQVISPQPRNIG
Kind of experiment: blocking ELISA: antibody pre-incubated with His-tagged IGSF11 ECD, complexes added to immobilised VSIR-Fc; y axis % remaining IGSF11 binding to VSIR, x axis nM IgG per legend.

The target of experiment [9] is T4, recombinant human IGSF11 (VSIG3) …. Kind of experiment: BLI, apparent affinity, IgG captured, IGSF11 ECD 100 nM. A general note: Biolayer interferometry detects binding as a change in optical thickness at a sensor tip.
Source text: Briefly, various APBs were loaded on an optical biosensor via a commercially available Capture System (AHC sensors, ForteBio).

One may read the EC50 as the concentration at which the effect is half-maximal.

Bounds are passed on as bounds.

T7 sequence (P22629 37-163 limits assumed): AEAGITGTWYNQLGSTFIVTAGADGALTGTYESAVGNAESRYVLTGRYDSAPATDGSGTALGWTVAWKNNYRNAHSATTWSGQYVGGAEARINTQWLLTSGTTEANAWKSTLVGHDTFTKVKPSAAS
Procedure for Streptavidin: as §2

B1: C-017 (IgG1 format) (antibody, V domains shown)
VH: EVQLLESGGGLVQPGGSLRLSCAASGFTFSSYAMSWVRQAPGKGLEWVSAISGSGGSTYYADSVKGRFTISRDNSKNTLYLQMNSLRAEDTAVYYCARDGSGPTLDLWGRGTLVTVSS
VL: DIQMTQSPSSLSASVGDRVTITCRASQSISSYLNWYQQKPGKAPKLLIYAASSLQSGVPSRFSGSGSGTDFTLTISSLQPEDFATYYCQQHRYIPPWTFGQGTKVEIK
notes: wildtype human IgG1 and kappa or lambda constant regions
For B1, the concentration giving a half-maximal response (EC50) in [1] was 1 to 20 nM; with murine IGSF11 on cells [2], 20 to 50 nM; in the experiment with murine IGSF11 on cells [3], 50 to 100 nM; in experiment [4], 15 to 25 nM.

B2: C-019 (Fab format) (Fab, V domains shown)
VH: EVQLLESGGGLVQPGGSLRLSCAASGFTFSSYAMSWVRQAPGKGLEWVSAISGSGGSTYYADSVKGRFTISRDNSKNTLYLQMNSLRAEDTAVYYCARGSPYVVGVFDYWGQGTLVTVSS
VL: DIQMTQSPSSLSASVGDRVTITCRASQSISSYLNWYQQKPGKAPKLLIYAASSLQSGVPSRFSGSGSGTDFTLTISSLQPEDFATYYCQQWQHEPPYTFGQGTKVEIK
notes: Fab in E. coli lysate
Regarding B2, the A450 is below 1 in experiment [5], below 1 in experiment [6], below 1 in experiment [7] and below 0.1 with Streptavidin.

B3: B-008 (chain-swapped IgG1) (antibody, V domains shown)
VH: EVQLVESGGGLIQPGGSLRLSCAASGFTVSSNYMSWVRQAPGKGLEWVSVIYSGGSTYYADSVKGRFTISRDNSKNTLYLQMNSLRAEDTAVYYCARGNPYYYGDLQVNFDYWGQGTLVTVSS
VL: QAVVTQEPSLTVSPGGTVTPTCGSSTGAVTSGNLPNWFQQKPGQAPRALIYSTSNKHSWTPARISGSLLGGKAALTLSGVQPEDEAEYYCLLYYGGAWVFGGGTKLTVL
notes: human IgG1 format; also called B8
For B3, the “IC50 (read off the curve)” value in experiment [8] is around 4 nM.

B4: C-013 (Fab format) (Fab, V domains shown)
VH: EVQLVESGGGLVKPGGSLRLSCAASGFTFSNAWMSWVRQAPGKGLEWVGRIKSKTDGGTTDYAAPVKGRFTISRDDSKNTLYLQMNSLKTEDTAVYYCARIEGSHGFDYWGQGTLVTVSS
VL: SYELTQPPSVSVSPGQTASITCSGDKLGDKYASWYQQKPGQSPVLVIYQDSKRPSGIPERFSGSNSGNTATLTISGTQAEDEADYYCASYLHTPKQFVFGGGTKLTVL
notes: Fab in E. coli lysate
B4: the A450 in experiment [5] was below 1; with Streptavidin it was below 0.1.

B5: C-018 (Fab format) (Fab, V domains shown)
VH: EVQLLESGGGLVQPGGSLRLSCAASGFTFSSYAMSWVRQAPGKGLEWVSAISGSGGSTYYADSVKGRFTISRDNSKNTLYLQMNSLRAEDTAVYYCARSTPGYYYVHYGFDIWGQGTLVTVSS
VL: SYELTQPPSVSVSPGQTASITCSGDKLGDKYASWYQQKPGQSPVLVIYQDSKRPSGIPERFSGSNSGNTATLTISGTQAEDEADYYCQAWSTSTHSWVFGGGTKLTVL
notes: Fab in E. coli lysate
For B5, the A450 was below 1 in experiment [5], below 1 in experiment [6], below 1 in [7] and below 0.1 with Streptavidin.

B6: C-005 (IgG1 format) (antibody, V domains shown)
VH: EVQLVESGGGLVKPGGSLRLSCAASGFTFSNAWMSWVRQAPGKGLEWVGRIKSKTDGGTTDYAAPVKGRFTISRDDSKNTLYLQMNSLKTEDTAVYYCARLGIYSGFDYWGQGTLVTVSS
VL: SYELTQPPSVSVSPGQTASITCSGDKLGDKYASWYQQKPGQSPVLVIYQDSKRPSGIPERFSGSNSGNTATLTISGTQAEDEADYYCHSYTGKPSQVVFGGGTKLTVL
notes: as for B1
B6: the 50% effective concentration (EC50) in experiment [1] was below 1 nM; with murine IGSF11 on cells [2] it was below 20 nM; in the experiment with murine IGSF11 on cells [3], below 20 nM; in [4], below 10 nM. Besides, the Kd in [9] was below 15 nM.

B7: C-010 (Fab format) (Fab, V domains shown)
VH: QVQLVQSGAEVKKPGSSVKVSCKASGGTFSSYAISWVRQAPGQGLEWMGGIIPIFGTANYAQKFQGRVTITADESTSTAYMELSSLRSEDTAVYYCARGYGEYYPAFDVWGQGTLVTVSS
VL: SYELTQPPSVSVSPGQTASITCSGDKLGDKYASWYQQKPGQSPVLVIYQDSKRPSGIPERFSGSNSGNTATLTISGTQAEDEADYYCASYAHTHSTWVFGGGTKLTVL
notes: Fab in E. coli lysate
Consider B7, for which the A450 in [6] is below 1; in experiment [7] it was below 1; in the experiment with Streptavidin, below 0.1.

B8: C-027 (Fab format) (Fab, V domains shown)
VH: QVQLVQSGAEVKKPGSSVKVSCKASGGTFSSYAISWVRQAPGQGLEWMGGIIPIFGTANYAQKFQGRVTITADESTSTAYMELSSLRSEDTAVYYCARENIPSYYDSSGRQDAFDIWGQGTMVTVSS
VL: SYELTQPPSVSVSPGQTASITCSGDKLGDKYASWYQQKPGQSPVLVIYQDSKRPSGIPERFSGSNSGNTATLTISGTQAEDEADYYCQSYLHKSHGAVFGGGTKLTVL
notes: Fab in E. coli lysate
Turning to B8, the A450 in experiment [5] is below 1; in [7], below 1; with Streptavidin it was below 0.1.

B9: C-007 (IgG1 format) (antibody, V domains shown)
VH: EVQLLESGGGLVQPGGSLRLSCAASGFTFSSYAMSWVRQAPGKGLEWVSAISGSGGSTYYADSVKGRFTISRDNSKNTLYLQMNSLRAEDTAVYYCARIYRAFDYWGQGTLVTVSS
VL: ASVLTQPPSVSAAPGQKVTISCSGSSSNIGNNYVSWYQQLPGTAPKLLIYDNNKRPSGIPDRFSGSKSGTSATLGITGLQAEDEADYYCQLYEEEHSTWVFGGGTKLTVL
notes: as for B1
B9: the EC50 was below 1 nM in experiment [1], 20 to 50 nM with murine IGSF11 on cells [2], below 20 nM with murine IGSF11 on cells [3] and below 10 nM in experiment [4]. Also, the Kd in [9] is below 125 nM.

B10: C-004 (Fab format) (Fab, V domains shown)
VH: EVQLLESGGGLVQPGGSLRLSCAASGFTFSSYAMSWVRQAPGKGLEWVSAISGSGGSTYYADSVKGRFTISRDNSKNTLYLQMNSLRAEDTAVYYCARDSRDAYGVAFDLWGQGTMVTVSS
VL: ASVLTQPPSVSAAPGQKVTISCSGSSSNIGNNYVSWYQQLPGTAPKLLIYDNNKRPSGIPDRFSGSKSGTSATLGITGLQAEDEADYYCLTWTGAGRIFVFGGGTKLTVL
notes: Fab in E. coli lysate
In the case of B10, the A450 in experiment [5] is below 1; in experiment [6], below 1; in [7], below 1; with Streptavidin it was below 0.1.

B11: C-001 (IgG1 format) (antibody, V domains shown)
VH: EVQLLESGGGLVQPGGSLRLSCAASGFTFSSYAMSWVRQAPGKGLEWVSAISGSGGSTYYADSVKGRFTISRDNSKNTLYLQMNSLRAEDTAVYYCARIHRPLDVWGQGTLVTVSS
VL: ASVLTQPPSVSAAPGQKVTISCSGSSSNIGNNYVSWYQQLPGTAPKLLIYDNNKRPSGIPDRFSGSKSGTSATLGITGLQAEDEADYYCGSWLEERSQYVFGGGTKLTVL
notes: wildtype human IgG1 and kappa or lambda constant regions; also called ABP C-001
In the case of B11, the EC50 in experiment [1] is below 1 nM; with murine IGSF11 on cells [2], 20 to 50 nM; in the experiment with murine IGSF11 on cells [3], 50 to 100 nM; in [4], below 10 nM. Also, the Kd in experiment [9] was below 75 nM.

B12: C-016 (IgG1 format) (antibody, V domains shown)
VH: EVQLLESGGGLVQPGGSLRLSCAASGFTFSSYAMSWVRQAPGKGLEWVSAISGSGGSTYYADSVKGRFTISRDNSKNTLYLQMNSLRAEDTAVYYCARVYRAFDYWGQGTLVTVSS
VL: ASVLTQPPSVSAAPGQKVTISCSGSSSNIGNNYVSWYQQLPGTAPKLLIYDNNKRPSGIPDRFSGSKSGTSATLGITGLQAEDEADYYCHLYTEAESHWVFGGGTKLTVL
notes: as for B1
For B12, the EC50 with murine IGSF11 on cells [2] lay within 20 to 50 nM; with murine IGSF11 on cells [3] it was 50 to 100 nM.
